Data reported in the nanobody polyreactivity screen of Harvey et al. (2022).

assay: yeast display, Sf9 membrane polyspecificity reagent, FACS + sequencing; frameworks hold sequencing errors
Summary of the method: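 After 36–48 hours of galactose induction, yeast (Saccharomyces cerevisiae BJ5465) displaying a synthetic nanobody library were stained at 4 °C for 1 hour with 10% biotinylated, detergent-solubilized Sf9 membrane reagent. Streptavidin microbeads enriched the stained cells before FACS sorting into low and high (top ~1%) gates on anti-HA and streptavidin fluorescence. Each clone's polyreactivity label reflects its gate of origin.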

Q: With “QVQLVESGGGLVLAGGSLRLSSAASGSIFYRNAMGWYRQSPGKERQLVATITVNGGRTYYADSVKGRFTISRDIAKNTVYLQMNSLKPEDTAVYYCAKDVHRWYPYDYCGQGTQVTVSS” as the sequence, how does the “polyreactivity (PSR sort gate)” value read?
A: low polyreactivity

Q: Which “polyreactivity (PSR sort gate)” value does the source give for “QVQLVESGGGLVLAGVSLRLSCAASGSTFPYNAMGWYRQAPGKERELVAAITSRGGSTYYADSVKGRFTISRDNAKNTVYLQMNSLKPEDTAVYYCATPGDTYGWTRRRYYYWGQGTQVTVSS” here?
A: high polyreactivity

Q: Which “polyreactivity (PSR sort gate)” value does the source give for “QVQLVESGGGLVNAGGSLRLSCAASGSTFYLYHMGWYRQAPGKEREFFARITWSGGSTYYADSVKGRFTLSRDNAKNTVYLQMNSLKPEDTAVYYCNKVYGQRNSYPDYDYWGQGSQVTVSS” here?
A: high polyreactivity

Q: For “QVQLVESGGGLVPAGGSLRLRCAASGSTFPYYAMGGYRQAPGKERELVAAIRRSGANTYYADSVKGRFTISRDNAKNTVYLQMNSLKPEDTAVYYCNVEYVISWWLYDYWGQGTQVTVSS”, which “polyreactivity (PSR sort gate)” value is on record?
A: low polyreactivity

Q: With “QVQLVESGGGLVPAGGSLRLRCAASGYIFRQNAMGWYRQAPGKERELVAVITARGGSTYYADSVKGRFTISRDNEKNTVYLQMNSLKPEDTAVYYCNARYYRRQYRGGAYWGQGTQVTVSS” as the sequence, how does the “polyreactivity (PSR sort gate)” value read?
A: low polyreactivity

Q: With “QVQLVESGGGLVPAGGSLRLSCAASGFIFGGYAMGWYRQAPGKERELVADITTSGDSTYYADSVKGRFTISRDNAKNTVYLQMNSLKPEDTAVYYCNAKRSFRWTYGYWGQGTQVTVSS” as the sequence, how does the “polyreactivity (PSR sort gate)” value read?
A: high polyreactivity

Q: With “QVQLVESGGGLVPAGGSLRLSCAASGFTFNSNAMGWYRQAPGKERELVAAISGSGGRTYYADSVKGRFTISRDNAKNTVYLQRNSLKPEDTAVYYCAADYPVRSYDYWGQGTQVTVSS” as the sequence, how does the “polyreactivity (PSR sort gate)” value read?
A: low polyreactivity

Q: For “QVQLVESGGGLVPAGGSLRLSCAASGNIYRYYVMGWYRQAPGKEREFVAAITSSGGSTYYADSVKGRFTISRDNAKNTVYLQMNSLKPEDTAVYYCAKDYWDPGWAEYDDWGQGTQVTVSS”, which “polyreactivity (PSR sort gate)” value is on record?
A: low polyreactivity

Q: Which “polyreactivity (PSR sort gate)” value does the source give for “QVQLVESGGGLVPAGGSLRLSCAASGNNFRANTMGWYRQARGKERELVASIRRSGGSSYYADSVKGRFTISRDNAKNTVYLQMNSLKPEDTAAYYCAAESRPPYTDNYYWGQGTQVTVSS” here?
A: high polyreactivity

Q: With “QVQLVESGGGLVPAGGSLRLSCAASGRTLGYNAMGWYRQAPGKERELVAAISRGDSTNYADSVKGRFTISRDNAKNTVYLQMNSLKPEDTAVYYCAAAFPRYRSRAIRVDYWGQGTQVTVSS” as the sequence, how does the “polyreactivity (PSR sort gate)” value read?
A: high polyreactivity

Q: For “QVQLVESGGGLVPAGGSLRLSCAASGSIFVKYALGRYRPAPGKERELVAAISRSGTRTYYADSVKGRFTISRDNAKNTVYLQMNSLKPEDTAVYYCAAAATTVRPYEYWGQGTQVTVSS”, which “polyreactivity (PSR sort gate)” value is on record?
A: high polyreactivity

Q: For “QVQLVESGGGLVPAGGSLRLSCAASGSNFYWYVMGWYRQAPGKERELVADIRYSPGRTYYADSVKGRFTISRDNAKNTVYLQMNSLIPEDTAVYYCKARRRLFTVDFDYWGQGTQVTVSS”, which “polyreactivity (PSR sort gate)” value is on record?
A: high polyreactivity

Q: With “QVQLVESGGGLVPAGGSLRLSCAASGSTFKIYAMGWYRQAPGKERELVARITSGGSTNYADSVKGRFTISRDNAKNTVYLQMNSLKPDDTAVYYCAARRWSYSTRGQRSTNLDYWGQGTQVTVSS” as the sequence, how does the “polyreactivity (PSR sort gate)” value read?
A: high polyreactivity

Q: Which “polyreactivity (PSR sort gate)” value does the source give for “QVQLVESGGGLVPAGGSLRLSCAASGSTFPGYAMGWYRQAPGQERELVAAISTSGGRTYYADSVKGRFTISRDNAKNTVYLQMNSLKPEDTAVYYCARVAFYVAHGGFAFGRYYYWGQGTQVTVSS” here?
A: low polyreactivity

Q: With “QVQLVESGGGLVPARGSLRLSCAASGFTFYRYAMGCYRQAPGKERELVAAITSRSGITYYADSVKGRFTISRDNAKNTVYLQMNSLKPEDTAVYYCAAYVYRSTEFDYGYWGQGTQVTVSS” as the sequence, how does the “polyreactivity (PSR sort gate)” value read?
A: high polyreactivity

Q: For “QVQLVESGGGLVPARGSLRLSCAASGIILRGYAMGWYRQSPGKERELVAAITYRGSSTYYADSVKGSFTISRDNAKNTVYLQMNSLKPEDTAVYYCGADRWLYAVITAGGGYWGQGTQVTVSS”, which “polyreactivity (PSR sort gate)” value is on record?
A: high polyreactivity

Q: With “QVQLVESGGGLVQAAASLRLSCPASGSTFRFYTMALYIQSPGTESDLVAAITRRGGITFYSDSVKWRFTISRDNAKNTVYLHMNSLKPEDTAVYDCAARFAYWGQDYYFWGQGSQVTVSS” as the sequence, how does the “polyreactivity (PSR sort gate)” value read?
A: high polyreactivity

Q: Which “polyreactivity (PSR sort gate)” value does the source give for “QVQLVESGGGLVQAAGSLPLSCAASGSTLLNYAMGWYRQAPGKQSQLVAAISSSGGRTYYADSVKGRFTISRDNAKNTVYLQMNSLKPEDTAVYYCNKGLGYPKTFGYWGQGTQVTVSS” here?
A: high polyreactivity

Q: With “QVQLVESGGGLVQAAGSLRFSWAASRSIFRQYGMGWYRQAHGKERELVARISRRSGTTYYADSVKGRFTISRDYAKNTVYLQMNSLKPEDSAVSYCAAVPGWIHVDYWGQGTQVTVSS” as the sequence, how does the “polyreactivity (PSR sort gate)” value read?
A: high polyreactivity

Q: Which “polyreactivity (PSR sort gate)” value does the source give for “QVQLVESGGGLVQAAGSLRLSCAASGLPSVDAMGWYRQAPGKERELVAAISLTGSSTYYADSVKGRFTISRDNAKNTVYLQRNSLKPEDTAVYYCAADSSYTPNDDNWGQGTQVTVSS” here?
A: low polyreactivity

Q: With “QVQLVESGGGLVQAAGSLRLSCAASGRISRTNAMGWYRQAPGKERQLVATINSGTGTNYADSVKGRFTISRDNAKNTVYLQMNSLKPEDTEVYYCAARYRYWPKYYPVSYRYDYWGQGTQVTVSS” as the sequence, how does the “polyreactivity (PSR sort gate)” value read?
A: low polyreactivity

Q: With “QVQLVESGGGLVQAAGSLRLSCAASGRTFYRNAMGWYRQAPGKERELVAAISQSGGSTYYADSVKGRFTISRDNAKNTVYLQMNSLKPEDTAVYYWAAGNSRRVGMDYWGQGTQVTVSS” as the sequence, how does the “polyreactivity (PSR sort gate)” value read?
A: high polyreactivity

Q: For “QVQLVESGGGLVQAAGSLRLSCAASGSIFRPYAMGWYRQAPGKERELVATITSRGGSTYYADSVKGRFTISRDNAKNTVYLQMNSMKPEDTAVYYCAARYISSYGRTQDYSRYDYWGQGTQVNVSS”, which “polyreactivity (PSR sort gate)” value is on record?
A: high polyreactivity

Q: Which “polyreactivity (PSR sort gate)” value does the source give for “QVQLVESGGGLVQAAGSLRLSCAASGSIFVSYAMGWYRPAPWKEREFVATINYSGGSSYYADSVKGRFTISRDNAKNTVYLQMNSLKPEDTAVYYCAARPYHHGYWLNYGYWGQGTQVTVSS” here?
A: high polyreactivity

Q: Which “polyreactivity (PSR sort gate)” value does the source give for “QVQLVESGGGLVQAAGSLRLSCAASGSTFTLNAMGWNRQAPGKERELVAAITSGGRTKYADSVKGRFTISRDNAKNTVYLQMNSLKPEDTAVYYCAATFAGGYGYWGQGTQVTVSS” here?
A: high polyreactivity

Q: Which “polyreactivity (PSR sort gate)” value does the source give for “QVQLVESGGGLVQAGASLRLSCAASGFIFGKYAMGWYRQAPGKERELVAAISSSGGSTYYADSVKGRFTISRDTAKNTVYLQMNSLKPEDTAGYYCNAKVRGTNTAGVDYWGQGTQVTVSS” here?
A: high polyreactivity

Q: For “QVQLVESGGGLVQAGASLRLSCAASGFIYSFNTMGWYRQAPGKERELVAAITSGGSTNYADSVKGRFTISRDNAKNTVYLQMNSLKPEDTAVYYCNRQYYSYYGNDYWGQGTQVTVSS”, which “polyreactivity (PSR sort gate)” value is on record?
A: high polyreactivity

Q: With “QVQLVESGGGLVQAGASLRLSCAASGFTFVHYALGWYRQAPGKERELVAAITWNGGRTYYADSVQGRFTISRDNAKNTVYFQMNSLKPEDTAVYYCNAVRITYGRYDLDYWGQGTQVTVSS” as the sequence, how does the “polyreactivity (PSR sort gate)” value read?
A: high polyreactivity

Q: With “QVQLVESGGGLVQAGASLRLSCAASGGTFLIYGRGWYRQAPGKERELVAAISRSGGSTYYADSVKGRFTISRDNAKNTVYLQMNSLKPEDTAVYYCAADSGYLSPYDYWGQGTQVTVSS” as the sequence, how does the “polyreactivity (PSR sort gate)” value read?
A: low polyreactivity

Q: Which “polyreactivity (PSR sort gate)” value does the source give for “QVQLVESGGGLVQAGASLRLSCAASGIIFPRYAMGWSRQAPGKERDLVAAISYSGGSTYYADSVKGRFTISRDNAKNTVYLQMNSLKPEDPAVYYCAAKWGWKVGYSYYYWGQGTQVTVSS” here?
A: high polyreactivity

Q: Which “polyreactivity (PSR sort gate)” value does the source give for “QVQLVESGGGLVQAGASLRLSCAASGITFYSYGMGWYRQAPGKERELVAAISGSGTTTYADSVKGRFTISRDNAKNPVYLQMNSLKPEDTAVYYCAAVARYPRWHHYYWGQGTQVTVSS” here?
A: low polyreactivity

Q: With “QVQLVESGGGLVQAGASLRLSCAASGLTYSHYAMGWYRQAPGKERQLVAGISSRGGNTYYADSVKGRFTISRDNAKNTVYLQMNSLKPEDTAVYYCNAPKPKRAYDYWGQGTQVTVSS” as the sequence, how does the “polyreactivity (PSR sort gate)” value read?
A: high polyreactivity
